B1: NIK: kinase, a downstream mediator in the NF-κB pathway, recruited to CD40 via TRAF2 (protein, UniProt Q99558 1-947, looked up)
Mitogen-activated protein …: MAVMEMACPGAPGSAVGQQKELPKAKEKTPPLGKKQSSVYKLEAVEKSPVFCGKWEILNDVITKGTAKEGSEAGPAAISIIAQAECENSQEFSPTFSERIFIAGSKQYSQSESLDQIPNNVAHATEGKMARVCWKGKRRSKARKKRKKKSSKSLAHAGVALAKPLPRTPEQESCTIPVQEDESPLGAPYVRNTPQFTKPLKEPGLGQLCFKQLGEGLRPALPRSELHKLISPLQCLNHVWKLHHPQDGGPLPLPTHPFPYSRLPHPFPFHPLQPWKPHPLESFLGKLACVDSQKPLPDPHLSKLACVDSPKPLPGPHLEPSCLSRGAHEKFSVEEYLVHALQGSVSSGQAHSLTSLAKTWAARGSRSREPSPKTEDNEGVLLTEKLKPVDYEYREEVHWATHQLRLGRGSFGEVHRMEDKQTGFQCAVKKVRLEVFRAEELMACAGLTSPRIVPLYGAVREGPWVNIFMELLEGGSLGQLVKEQGCLPEDRALYYLGQALEGLEYLHSRRILHGDVKADNVLLSSDGSHAALCDFGHAVCLQPDGLGKSLLTGDYIPGTETHMAPEVVLGRSCDAKVDVWSSCCMMLHMLNGCHPWTQFFRGPLCLKIASEPPPVREIPPSCAPLTAQAIQEGLRKEPIHRVSAAELGGKVNRALQQVGGLKSPWRGEYKEPRHPPPNQANYHQTLHAQPRELSPRAPGPRPAEETTGRAPKLQPPLPPEPPEPNKSPPLTLSKEESGMWEPLPLSSLEPAPARNPSSPERKATVPEQELQQLEIELFLNSLSQPFSLEEQEQILSCLSIDSLSLSDDSEKNPSKASQSSRDTLSSGVHSWSSQAEARSSSWNMVLARGRPTDTPSYFNGVKVQIQSLNGEHLHIREFHRVKVGDIATGISSQIPAAAFSLVTKDGQPVRYDMEVPDSGIDLQCTLAPDGSFAWSWRVKHGQLENRP
B2: TRAF3: TNF receptor associated factor 3, adaptor protein expressed from pcDNA3 (protein, UniProt Q13114 1-568, looked up)
chain: MESSKKMDSPGALQTNPPLKLHTDRSAGTPVFVPEQGGYKEKFVKTVEDKYKCEKCHLVLCSPKQTECGHRFCESCMAALLSSSSPKCTACQESIVKDKVFKDNCCKREILALQIYCRNESRGCAEQLMLGHLLVHLKNDCHFEELPCVRPDCKEKVLRKDLRDHVEKACKYREATCSHCKSQVPMIALQKHEDTDCPCVVVSCPHKCSVQTLLRSELSAHLSECVNAPSTCSFKRYGCVFQGTNQQIKAHEASSAVQHVNLLKEWSNSLEKKVSLLQNESVEKNKSIQSLHNQICSFEIEIERQKEMLRNNESKILHLQRVIDSQAEKLKELDKEIRPFRQNWEEADSMKSSVESLQNRVTELESVDKSAGQVARNTGLLESQLSRHDQMLSVHDIRLADMDLRFQVLETASYNGVLIWKIRDYKRRKQEAVMGKTLSLYSQPFYTGYFGYKMCARVYLNGDGMGKGTHLSLFFVIMRGEYDALLPWPFKQKVTLMLMDQGSSRRHLGDAFKPDPNSSSFKKPTGEMNIASGCPVFVAQTVLENGTYIKDDTIFIKVIVDTSDLPDP
modifications: full-length
notes: TNF receptor associated factor 3, adaptor protein expressed from pcDNA3
B3: TRAF5: TRAF5 adaptor protein, expressed as tagged deletion mutant, amino acids 145 to 557 (protein, UniProt O00463 145-557, looked up, fragment)
chain: REPVLRKDLKEHLSASCQFRKEKCLYCKKDVVVINLQNHEENLCPEYPVFCPNNCAKIILKTEVDEHLAVCPEAEQDCPFKHYGCAVTDKRRNLQQHEHSALREHMRLVLEKNVQLEEQISDLHKSLEQKESKIQQLAETIKKLEKEFKQFAQLFGKNGSFLPNIQVFASHIDKSAWLEAQVHQLLQMVNQQQNKFDLRPLMEAVDTVKQKITLLENNDQRLAVLEEETNKHDTHINIHKAQLSKNEERFKLLEGTCYNGKLIWKVTDYKMKKREAVDGHTVSIFSQSFYTSRCGYRLCARAYLNGDGSGRGSHLSLYFVVMRGEFDSLLQWPFRQRVTLMLLDQSGKKNIMETFKPDPNSSSFKRPDGEMNIASGCPRFVAHSVLENAKNAYIKDDTLFLKVAVDLTDLEDL
modifications: His tag

How the values were obtained:
Type in all cases: cell-based
[1] = molecular target: T1, CD40 (Homo sapiens, UniProt P25942); test: Recruitment of NIK to CD40 via TRAF2 in 293T cells, anti-CD40 capture ELISA with anti NIK detection
T1 construct: expressed in transfected cells; host or cells: HEK 293T
From the text: The assay described in example 1 can be used to measure recruitment of signal proteins, e.g. NIK (a downstream mediator in the NF-κB pathway Malinin et al. 1997) to a cytokine receptor, e.g. CD40 via an adaptor protein e.g. TRAF2. Expression plasmids encoding CD40, TRAF2, NIK (in pcDNA3.1) and myc-tagged IKKα were co-transfected into 293T (at a ratio of 1:1.75:1.75:1.75 respectively). Empty vector was used to equalize the amount of transfected DNA. The transfection was done as described for example 1. Twenty seven hours later the cells were extracted as described in example 1. The lysates were incubated with ELISA plates coated with an anti CD40 mAb (R01, Schwabe et al. 1997). After two hours the plates were washed with PBS/tween and developed with a commercially available rabbit anti NIK antibody (Santa Cruz at 1:100 dilution, SC-6363) and HRP-labeled goat anti rabbit Ig antibody (Pharmingen). The recruitment assay for NIK is schematically represented in FIG. 5A.

[2] = molecular target: T2, CD40 mutants (Homo sapiens, UniProt P25942, E235A); test: Recruitment assay in intact cells with CD40 mutants (deletions or point mutations in TRAF binding sites); settings: E235A, relative to wild type CD40
T2 construct: expressed in transfected cells; host or cells: 293T
Description: The lysates were cleared by centrifugation at 15000 G at 4° C. in a micro-centrifuge, 3 fold serially diluted (with lysis buffer containing 1% bovine serum albumin) and then every diluted sample incubated for 2 hours at room temperature (or overnight) in wells of ELISA microtiter plates coated with a mAb (Ro1) specific to the CD40 extra-cellular domain (Schwabe et al. 1997). For control purposes, instead of the wild type CD40 plasmid, a plasmid encoding a CD40 mutant lacking the entire signaling domain was used for transfection and transient expression (CD401-222, FIG. 1B). Following incubation exhaustive washes were carried out on the microtiter plates to remove any unbound protein [about 10 washing steps with PBS containing 0.05% Tween 20) PBS/Tween)]. To detect bound TRAF1, anti TRAF1 specific antibodies were loaded into the plates, incubated for about 3 hours at room temperature, […] by extensive washes to remove unbound antibody and detecting the bound antibody with an HRP conjugated secondary antibody. All antibodies (except when used as solid phase antibody) were diluted in PBS/Tween containing 1% BSA.
(§1) The recruitment of TRAF to CD40 can be quantitatively measured using the assay described in example 1. For that purpose, the assay conditions were adjusted in such a way that TRAF expression was in significant excess over the expression of CD40. This was the case when the TRAF expression plasmid was used at a two to three fold excess over the CD40 expression plasmid. The CD40 bound TRAF concentration was measured as described in example 1. A reference extract containing CD40/TRAF complexes served as a standard in each assay. This standard extract consisted of a large pool extract from cells that had been co-transfected with the plasmids encoding CD40/TRAF1, CD40/TRAF2, CD40/TRAF3, CD40/TRAF5 and CD40/TRAF6. The extracts were tested for the presence of CD40/TRAF complexes and the complex concentrations in each extract were arbitrarily defined as 1000 U/ml. The extracts were frozen in small aliquots and kept at −80° C. until further use. By comparing unknown samples to these extracts, it was possible to determine the relative CD40-TRAF complex concentrations in arbitrary units. The necessary normalization for sample-to-sample variations in the CD40 expression was calculated with the following formula: […]
The quantitative version of the TRAF recruitment assay as described in example 3 was used to compare CD40 and various CD40 mutants with respect to their TRAF recruitment behaviour. TRAF 1, 2, 3, 5 and 6 were examined. […] Additional deletion of the TRAF1/2/3/5 binding motif PXQXT254 at amino acid position 250 to 254 reduced the binding of all 5 TRAFs test to background levels (1-254EA in FIG. 3B). […]

[3] = molecular target: T3, BCMA (Homo sapiens, UniProt P25942+Q02223); test: Recruitment assay with hybrid receptor (CD40 extracellular domain, BCMA transmembrane and intracellular domain); settings: 293T cells
T3 construct: transmembrane and intracellular domain of anyone of the following receptors: BCMA; expressed in transfected cells; host or cells: 293T
Description: as §1

[4] = molecular target: T4, CD27 (Homo sapiens, UniProt P25942+P26842); test: Recruitment assay with hybrid receptor (CD40 extracellular domain, CD27 transmembrane and intracellular domain); settings: 293T cells
T4 construct: cDNA fragments encoding for the transmembrane and cytoplasmic domains of the LTβR, TACI, the p75TNF receptor, CD27; expressed in transfected cells; host or cells: 293T
Description: as §1

[5] = molecular target: T5, LTβR (Homo sapiens, UniProt P25942+P36941); test: Recruitment assay with hybrid receptor (CD40 extracellular domain, LTβR transmembrane and intracellular domain); settings: 293T cells
T5 construct: cDNA fragments encoding for the transmembrane and cytoplasmic domains of the LTβR, TACI, the p75TNF receptor, CD27; expressed in transfected cells; host or cells: 293T
Description: as §1
Recruitment of various TRAFs to receptors different to CD40, was tested by the recruitment assay described in example 1 by transforming cells with expression plasmids encoding hybrids receptors comprising the extracellular domain of CD40 and transmembrane and intracellular domain of anyone of the following receptors: BCMA (Madry et al. 1998 and Hatzoglou et al. 2000) the LTβR-receptor (Mosialos et al. 1995, Crowe et al. 1994, Nakano et al. 1996), TACI (von Bulow et al. 1997, Xia et al. 2000) the p75TNFR (Rothe et al. 1994) and the CD27 (Gravestein et al. 1998, Akiba et al. 1998) (for details of constructs see example 7). Measurement of TRAF recruitment to the signalling domains of BCMA the LTβR-receptor TACI the p75TNFR or the CD27 was carried out by co-transfecting 293T cells with a plasmid encoding anyone of the above hybrid receptors together with a plasmid encoding TRAF and measurement of the TRAF/Receptor complex using the ELISA sandwich described in example 1 and the quantitation as described in example 3. The assay with the hybrid receptors is schematically represented in FIG. 4A. The results shown in FIG. 4B indicate that, using the assay monitoring recruitment in intact cells, any TRAF recruiting receptor of the TNF/NGF family can be examined with the same antibody sandwich assay described in example 1 and the amount of TRAF-receptor/CD40 hybrid complex can be monitored as described in example 3. […] Recruitment of TRAF3 to all the receptors tested is similar. […]

[6] = molecular target: T6, TACI (Homo sapiens, UniProt O14836+P25942); test: Recruitment assay with hybrid receptor (CD40 extracellular domain, TACI transmembrane and intracellular domain); settings: 293T cells
T6 construct: cDNA fragments encoding for the transmembrane and cytoplasmic domains of the LTβR, TACI, the p75TNF receptor, CD27; expressed in transfected cells; host or cells: 293T
Description: as §1

[7] = molecular target: T7, p75TNFR (Homo sapiens, UniProt P20333+P25942); test: Recruitment assay with hybrid receptor (CD40 extracellular domain, p75TNFR transmembrane and intracellular domain); settings: 293T cells
T7 construct: cDNA fragments encoding for the transmembrane and cytoplasmic domains of the LTβR, TACI, the p75TNF receptor, CD27; expressed in transfected cells; host or cells: 293T
Description: as §1, with “By comparing unknown samples to these extracts, it was possible to determine the relative CD40-TRAF complex concentrations in arbitrary units.” left out
Recruitment of various TRAFs to receptors different to CD40, was tested by the recruitment assay described in example 1 by transforming cells with expression plasmids encoding hybrids receptors comprising the extracellular domain of CD40 and transmembrane and intracellular domain of anyone of the following receptors: BCMA (Madry et al. 1998 and Hatzoglou et al. 2000) the LTβR-receptor (Mosialos et al. 1995, Crowe et al. 1994, Nakano et al. 1996), TACI (von Bulow et al. 1997, Xia et al. 2000) the p75TNFR (Rothe et al. 1994) and the CD27 (Gravestein et al. 1998, Akiba et al. 1998) (for details of constructs see example 7). Measurement of TRAF recruitment to the signalling domains of BCMA the LTβR-receptor TACI the p75TNFR or the CD27 was carried out by co-transfecting 293T cells with a plasmid encoding anyone of the above hybrid receptors together with a plasmid encoding TRAF and measurement of the TRAF/Receptor complex using the ELISA sandwich described in example 1 and the quantitation as described in example 3. […]

T5 sequence (P25942+P36941 fused): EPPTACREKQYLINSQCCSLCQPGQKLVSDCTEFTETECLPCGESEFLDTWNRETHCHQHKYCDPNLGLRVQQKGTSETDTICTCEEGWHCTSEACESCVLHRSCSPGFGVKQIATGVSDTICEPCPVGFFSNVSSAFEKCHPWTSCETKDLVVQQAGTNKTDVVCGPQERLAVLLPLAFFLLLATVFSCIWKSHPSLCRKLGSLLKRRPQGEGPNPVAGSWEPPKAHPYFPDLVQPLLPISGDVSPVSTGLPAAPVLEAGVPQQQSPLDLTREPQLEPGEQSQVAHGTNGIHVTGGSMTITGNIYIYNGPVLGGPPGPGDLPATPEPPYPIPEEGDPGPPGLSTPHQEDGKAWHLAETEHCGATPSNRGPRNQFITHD
T1 sequence (P25942 21-277): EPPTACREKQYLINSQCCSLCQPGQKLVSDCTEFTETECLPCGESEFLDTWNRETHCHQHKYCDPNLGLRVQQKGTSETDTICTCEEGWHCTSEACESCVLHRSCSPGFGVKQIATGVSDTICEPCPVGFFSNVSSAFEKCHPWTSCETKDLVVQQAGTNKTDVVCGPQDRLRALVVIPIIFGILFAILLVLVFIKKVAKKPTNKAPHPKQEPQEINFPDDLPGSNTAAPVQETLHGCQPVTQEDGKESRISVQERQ
T2 sequence (P25942 21-277 E235A): as the sequence (P25942 21-277) above, with E215A counted along it
T6 sequence (P25942+O14836 fused, species assumed): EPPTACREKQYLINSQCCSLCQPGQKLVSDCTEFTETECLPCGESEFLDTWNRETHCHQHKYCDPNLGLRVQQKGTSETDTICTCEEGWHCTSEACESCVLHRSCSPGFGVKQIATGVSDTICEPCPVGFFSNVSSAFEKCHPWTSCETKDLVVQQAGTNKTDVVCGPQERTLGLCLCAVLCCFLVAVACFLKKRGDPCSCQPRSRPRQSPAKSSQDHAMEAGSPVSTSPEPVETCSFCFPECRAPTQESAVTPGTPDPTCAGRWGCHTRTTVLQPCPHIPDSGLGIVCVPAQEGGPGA
T3 sequence (P25942+Q02223 fused, species assumed): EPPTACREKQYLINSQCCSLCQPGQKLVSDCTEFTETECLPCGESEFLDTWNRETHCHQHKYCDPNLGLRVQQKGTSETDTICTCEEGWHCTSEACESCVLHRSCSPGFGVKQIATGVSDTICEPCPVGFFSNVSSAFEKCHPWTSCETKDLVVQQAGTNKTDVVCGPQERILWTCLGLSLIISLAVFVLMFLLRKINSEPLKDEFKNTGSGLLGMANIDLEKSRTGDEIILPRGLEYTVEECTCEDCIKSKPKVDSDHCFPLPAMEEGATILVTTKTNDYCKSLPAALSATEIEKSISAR
T4 sequence (P25942+P26842 fused, species assumed): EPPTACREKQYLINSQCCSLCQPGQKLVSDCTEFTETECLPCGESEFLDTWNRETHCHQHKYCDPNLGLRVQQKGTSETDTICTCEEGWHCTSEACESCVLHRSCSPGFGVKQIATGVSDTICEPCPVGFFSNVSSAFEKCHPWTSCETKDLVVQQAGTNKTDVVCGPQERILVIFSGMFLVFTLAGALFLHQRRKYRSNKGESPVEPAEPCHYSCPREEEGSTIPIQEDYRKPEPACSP
T7 sequence (P25942+P20333 fused): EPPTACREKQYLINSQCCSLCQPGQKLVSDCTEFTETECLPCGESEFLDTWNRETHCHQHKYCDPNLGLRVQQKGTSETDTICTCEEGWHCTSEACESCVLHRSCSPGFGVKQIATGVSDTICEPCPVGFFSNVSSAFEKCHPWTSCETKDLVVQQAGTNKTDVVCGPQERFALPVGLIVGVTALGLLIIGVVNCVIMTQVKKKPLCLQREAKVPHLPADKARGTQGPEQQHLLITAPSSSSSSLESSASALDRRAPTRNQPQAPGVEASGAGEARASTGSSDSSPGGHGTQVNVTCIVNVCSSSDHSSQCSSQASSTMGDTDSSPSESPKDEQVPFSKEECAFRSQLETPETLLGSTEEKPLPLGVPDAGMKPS

Molecule	recruitment of NIK to CD40 when IKK was co-expressed ([1]; myc-tagged IKKα co-transfected)	recruitment of NIK to CD40, dependence on adaptor ([1]; with or without TRAF2 co-transfection)	recruitment to CD40 mutant E235A [2]	recruitment to BCMA compared with the other receptors tested [3]	recruitment to CD27 compared with the other receptors tested [4]	recruitment to LTβR compared with the other receptors tested [5]	recruitment to TACI compared with the other receptors tested [6]	recruitment to p75TNFR compared with the other receptors tested [7]	recruitment to LTβR, folds higher than recruitment to CD40 ([5]; CD40 as relative standard)
B1	clearly improved	TRAF2 dependent							
B2			reduced recruitment	similar	similar	similar	similar	similar	
B3			reduced recruitment						about 152 fold

— patent US7642046B2, “Method for monitoring recruitment of proteins to the intracellular domain of a receptor in intact cells” (priority 2001, dated 2010)
